Assay results: patent publication US20110008351A1 (UNIVERSITE LIBRE DE BRUXELLES, published 2011)

Molecular target: T1, purified human properdin (human, UniProt P27918 28-469)
T1 construct: also called factor P
Test: ELISA, properdin coated, normalized 293T supernatants, anti-V5 detection

T1 sequence (P27918 28-469 limits assumed): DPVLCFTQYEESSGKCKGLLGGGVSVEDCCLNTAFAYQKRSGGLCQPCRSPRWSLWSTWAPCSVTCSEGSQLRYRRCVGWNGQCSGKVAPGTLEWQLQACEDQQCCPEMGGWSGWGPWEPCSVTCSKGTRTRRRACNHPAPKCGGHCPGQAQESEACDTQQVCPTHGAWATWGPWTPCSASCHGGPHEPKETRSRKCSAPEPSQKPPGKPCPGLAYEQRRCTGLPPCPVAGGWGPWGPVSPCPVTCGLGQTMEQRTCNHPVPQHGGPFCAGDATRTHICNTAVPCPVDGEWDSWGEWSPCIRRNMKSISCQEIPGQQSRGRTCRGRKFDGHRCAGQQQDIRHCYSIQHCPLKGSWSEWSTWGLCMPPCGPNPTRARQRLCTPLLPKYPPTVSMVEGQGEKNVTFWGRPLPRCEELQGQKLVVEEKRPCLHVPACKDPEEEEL

B1: recombinant Rhipicephalus appendiculatus histamine-binding protein 2 (RaHBP2) (other, UniProt O77421 20-190, looked up, not shown: small tags and cut ends)
chain: NQPDWADEAANGAHQDAWKSLKADVENVYYMVKATYKNDPVWGNDFTCVGVMANDVNEDEKSIQAEFLFMNNADTNMQFATEKVTAVKMYGYNRENAFRYETEDGQVFTDVIAYSDDNCDVIYVPGTDGNEEGYELWTTDYDNIPANCLNKFNEYAVGRETRDVFTSACLE
notes: Negative control, supernatant of transfected 293T cells
Q: Does B1 bind?
A: no binding
